In article PMC5053906 (Neuron, 2016):

Molecular target: the molecule itself
Assay: single molecule subunit counting

B1: C-terminally GFP-tagged mGluR2 (receptor, rat, UniProt P31421 19-872, looked up)
chain: EGPAKKVLTLEGDLVLGGLFPVHQKGGPAEECGPVNEHRGIQRLEAMLFALDRINRDPHLLPGVRLGAHILDSCSKDTHALEQALDFVRASLSRGADGSRHICPDGSYATHSDAPTAVTGVIGGSYSDVSIQVANLLRLFQIPQISYASTSAKLSDKSRYDYFARTVPPDFFQAKAMAEILRFFNWTYVSTVASEGDYGETGIEAFELEARARNICVATSEKVGRAMSRAAFEGVVRALLQKPSARVAVLFTRSEDARELLAATQRLNASFTWVASDGWGALESVVAGSERAAEGAITIELASYPISDFASYFQSLDPWNNSRNPWFREFWEERFHCSFRQRDCAAHSLRAVPFEQESKIMFVVNAVYAMAHALHNMHRALCPNTTHLCDAMRPVNGRRLYKDFVLNVKFDAPFRPADTDDEVRFDRFGDGIGRYNIFTYLRAGSGRYRYQKVGYWAEGLTLDTSFIPWASPSAGPLPASRCSEPCLQNEVKSVQPGEVCCWLCIPCQPYEYRLDEFTCADCGLGYWPNASLTGCFELPQEYIRWGDAWAVGPVTIACLGALATLFVLGVFVRHNATPVVKASGRELCYILLGGVFLCYCMTFVFIAKPSTAVCTLRRLGLGTAFSVCYSALLTKTNRIARIFGGAREGAQRPRFISPASQVAICLALISGQLLIVAAWLVVEAPGTGKETAPERREVVTLRCNHRDASMLGSLAYNVLLIALCTLYAFKTRKCPENFNEAKFIGFTMYTTCIIWLAFLPIFYVTSSDYRVQTTTMCVSVSLSGSVVLGCLFAPKLHIILFQPQKNVVSHRAPTSRFGSAAPRASANLGQGSGSQFVPTVCNGREVVDSTTSSL
- stoichiometry N: 2
